# Patent publication US20210032351A1 (XDCEXPLORER SHANGHAI, published 2021)
# Experiments:
# [1] = biological target: T1, human EGFR protein (wild-type), on cells (human, UniProt P00533 25-1210); assay: FACS on HFF-1, HFL-I, QSG-7701, HEEC, HEB, WPMY-1 and MCF-10A cells
# T1 construct: whole, on cells; transfected on CHO-K1 cells; endogenous on the human cell lines; the cell is named under assay; also called wild-type EGFR; hEGFR
# [2] = biological target: T2, human EGFRvIII-hFc protein (human, UniProt P00533 25-645); assay: ELISA, plate coated with human EGFRvIII-hFc, HRP secondary antibody, absorbance at 450 nm
# T2 construct: extracellular domain; made in HEK293 cells, purified on protein A; also called immunogen A; hFc-tagged EGFRvIII protein; not shown: human IgG Fc fragment (hFc) of the pCpC vector
# Procedure: The purified immunogen A (EGFRvIII-hFc) obtained in example 1 (for the preparation method, see step (I) in example 1) is diluted with PBS to a final concentration of 1.0 μg/mL, and then added to a 96-well ELISA plate at 100 μl/well. The plate is sealed with a plastic film and incubated at 4° C. overnight. The next day, the plate is washed twice with a plate washing solution [PBS+0.01% (v/v) Tween20], and added with a blocking solution [PBS+0.01% (v/v) Tween20+1% (w/w) BSA] for blocking 2 hours at room temperature. […] The plate is incubated for 2 hours at 37° C., and then washed 3 times with the plate washing solution [PBS+0.01% (v/v) Tween20]. The plate is added with an HRP (horseradish peroxidase) labeled secondary antibody (purchased from Sigma), incubated at 37° C. for 2 hours, and then washed 3 times with the plate washing solution [PBS+0.01% (v/v) Tween20]. The plate is added with 100 μl of TMB substrate/well, incubated for 30 minutes at room temperature, and then added with 100 μl of stopping solution (1.0N HCl)/well. A450 nm value is read using an ELISA plate reader (SpectraMax 384plus, purchased from Molecular Device), and the results are shown in FIG. 11 and table 19.
# [3] = biological target: T3, human EGFRvIII protein on the cell surface (human, UniProt P00533 25-1210); assay: FACS on U87MG-hEGFRvIII cells
# T3 construct: whole, on cells; the cell line is named under assay; also called hEGFRvIII; U87MG-hEGFRvIII
# [4] = biological target: T4, human EGFRvIII-hFc protein (human, UniProt P00533 25-645); assay: ELISA, EGFRvIII-hFc coated
# T4 construct: extracellular domain; also called immunogen A; hFc-tagged EGFRvIII protein; not shown: human IgG Fc fragment (hFc) of the pCpC vector
# [5] = biological target: T5, human wild-type EGFR protein on the cell surface (human, UniProt P00533 25-1210); assay: FACS on A431 cells
# T5 construct: whole, on cells; Endogenous on A431, HEB, U87MG cells and normal human primary hepatocytes; transfected on CHOk1-EGFR cells; The cell is named under assay; also called A431; HEB
# Procedure: The cells are washed twice with the HBSS buffer and are counted, and then the cells are diluted with the HBSS buffer to 2×10⁶ cells/ml, added with 1% goat serum blocking solution, with the percentage being the mass percentage, and incubated on ice for 30 minutes, and then centrifugally washed twice with the HBSS buffer. The collected cells are suspended to 2×10⁶ cells/mL with an FACS buffer (HBSS+1% BSA, with the percentage being the mass percentage), added to a 96-well FACS reaction plate at 100 μL/well, then added with 100 μL/well of the purified EGFRvIII antibody (samples to be tested) obtained in example 2, and incubated on ice for 2 hours. The plate is centrifugally washed twice with the FACS buffer, added with 100 μL/well of a fluorescence (Alexa 488) labeled secondary antibody (purchased from Invitrogen), and then incubated on ice for 1 hour. […] The cells are suspended in 100 μL of the FACS buffer, and the results are detected and analyzed by FACS (FACS Calibur, purchased from BD). Data analysis is performed by using the software (CellQuest) to obtain the mean fluorescence intensity (MFI) of the cells. Data is further analyzed by using the software (GraphPad Prism5) to perform data fitting and calculate EC50. […]
binding result [1],EC50 (read off the curve) [2],EC50 [3],OD450 nm at 0.0001 nM antibody [4],OD450 nm at 0.001 nM antibody [4],OD450 nm at 0.01 nM antibody [4],OD450 nm at 0.1 nM antibody [4],OD450 nm at 1 nM antibody [4],OD450 nm at 10 nM antibody [4],OD450 nm at 100 nM antibody [4],binding result [5],Binder
no binding,~0.03 nM,–,–,–,–,–,–,–,–,–,"Chimeric antibody 7E5 (antibody, human IgG1, V domains shown, also called 7E5-2A9 (chimeric)) VH: EIQLQQSGPELVKPGASVKVSCKASGYSFTDYNMYWVKQSHGKSLEWIGYVDPSNGGTNYNQKFKGKATLTVDKSSSTAFMHLNSLTSEDSAVYYCARGFFDYWGQGTTLTVSS VL: DIVMTQSPSSLTVTAGEKVTMSCKSSQSLLNSGNQKNYLTWYQQKPGQPPKLLIYWASNRESGVPDRFTGSGSGKDFTLTISSVQAEDLAVYYCQNDYRYPVTFGAGTKLELK"
–,–,1.9 nM,0.09 OD450,0.08 OD450,0.19 OD450,1.18 OD450,3.45 OD450,3.63 OD450,3.6 OD450,no binding,"Chimeric antibody 7E5 (antibody, human IgG1, V domains shown, also called clone 7E5-2A9) VH: EIQLQQSGPELVKPGASVKVSCKASGYSFTDYNMYWVKQSHGKSLEWIGYVDPSNGGTNYNQKFKGKATLTVDKSSSTAFMHLNSLTSEDSAVYYCARGFFDYWGQGTTLTVSS VL: DIVMTQSPSSLTVTAGEKVTMSCKSSQSLLNSGNQKNYLTWYQQKPGQPPKLLIYWASNRESGVPDRFTGSGSGKDFTLTISSVQAEDLAVYYCQNDYRYPVTFGAGTKLELK"
